PMC11255602 (Protein Science : A Publication of the Protein Society, 2024)
Numbering of substitutions follows the chain as printed. Numbers in names are those of the source.

B1: tetramer interface mutant (TIM) PRMT1 Y262A/Y304A/L341A (enzyme, human (rat sequence humanized by H161Y), UniProt Q99873-3 1-353, looked up)
chain: MAAAEAANCIMEVSCGQAESSEKPNAEDMTSKDYYFDSYAHFGIHEEMLKDEVRTLTYRNSMFHNRHLFKDKVVLDVGSGTGILCMFAAKAGARKVIGIECSSISDYAVKIVKANKLDHVVTIIKGKVEEVELPVEKVDIIISEWMGYCLFYESMLNTVLYARDKWLAPDGLIFPDRATLYVTAIEDRQYKDYKIHWWENVYGFDMSCIKDVAIKEPLVDVVDPKQLVTNACLIKEVDIYTVKVEDLTFTSPFCLQVKRNDAVHALVAYFNIEFTRCHKRTGFSTSPESPYTHWKQTVFYMEDALTVKTGEEIFGTIGMRPNAKNNRDLDFTIDLDFKGQACELSCSTDYRMR
B2: tetramer interface mutant 2 (TIM2) PRMT1 H64A/R66A/H278A (enzyme, human (rat sequence humanized by H161Y), UniProt Q99873-3 1-353, looked up)
chain: B1 chain with H64A, R66A, A262Y, H278A, A304Y, A341L
B3: H293A/E153A (HE) PRMT1 (enzyme, human (rat sequence humanized by H161Y), UniProt Q99873-3 1-353, looked up)
chain: B1 chain with E153A, A262Y, H293A, A304Y, A341L

Target: the molecule itself
Assay: native gel or EMSA

Protein	stoichiometry N
B1	2
B2	2
B3	4
